Assays:
Assay in all cases: SPR, AAV amine-coupled to CM5 chip
AAV5 = biological target: T1, AAV5 (adeno-associated virus 5, Assembled 60-mer capsid of VP1/VP2/VP3 (nested products of one cap gene), amine-coupled to a CM5 chip; the letters give one VP1 subunit only.)
T1 construct: also called adeno-associated virus serotype 5

AAV8 = biological target: T2, AAV8 (adeno-associated virus 8, Assembled 60-mer capsid of VP1/VP2/VP3 (nested products of one cap gene), amine-coupled to a CM5 chip; the letters give one VP1 subunit only.)
T2 construct: also called adeno-associated virus serotype 8
T2 chain: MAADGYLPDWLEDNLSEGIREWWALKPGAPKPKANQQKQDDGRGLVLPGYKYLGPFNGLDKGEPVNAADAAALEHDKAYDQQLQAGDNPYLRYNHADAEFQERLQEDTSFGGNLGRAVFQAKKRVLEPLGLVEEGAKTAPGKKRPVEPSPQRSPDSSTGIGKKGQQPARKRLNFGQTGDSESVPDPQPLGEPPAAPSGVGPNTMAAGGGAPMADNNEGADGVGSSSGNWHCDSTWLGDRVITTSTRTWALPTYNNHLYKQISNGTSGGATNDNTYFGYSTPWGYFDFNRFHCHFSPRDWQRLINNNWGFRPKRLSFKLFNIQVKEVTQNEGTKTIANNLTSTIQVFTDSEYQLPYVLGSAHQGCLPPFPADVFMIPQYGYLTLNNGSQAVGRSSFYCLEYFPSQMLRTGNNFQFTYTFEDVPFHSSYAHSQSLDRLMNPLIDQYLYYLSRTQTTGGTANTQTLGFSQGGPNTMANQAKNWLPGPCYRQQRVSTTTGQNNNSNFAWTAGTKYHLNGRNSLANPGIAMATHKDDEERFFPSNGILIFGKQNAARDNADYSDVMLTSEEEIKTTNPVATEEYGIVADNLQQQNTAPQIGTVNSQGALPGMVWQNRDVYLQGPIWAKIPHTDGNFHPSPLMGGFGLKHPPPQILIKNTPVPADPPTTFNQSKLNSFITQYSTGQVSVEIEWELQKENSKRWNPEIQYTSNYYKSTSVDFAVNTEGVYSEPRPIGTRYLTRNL

AAV9 = biological target: T3, AAV9 (adeno-associated virus 9, Assembled 60-mer capsid of VP1/VP2/VP3 (nested products of one cap gene), amine-coupled to a CM5 chip; the letters give one VP1 subunit only.)
T3 construct: also called adeno-associated virus serotype 9

B1: A4-D1 (VHH)
chain: VQLQESGGGLAQAGGSLRLSCAASGRGFSINTMGWYRQAPGKQRELVAAVTRGGTTNYADSVKGRFTISRDNAKNTVYLQMNSLRPEDTAVYYCHVDEVRQSSWTTSNLWGQGTQVTVSSGGGGSGGGGSGGGGSVQLQESGGGLAQAGGSLRLSCAASGRGFSINTMGWYRQAPGKQRELVAAVTRGGTTNYADSVKGRFTISRDNAKNTVYLQMNSLRPEDTAVYYCHVDEVRQSSWTTSNLWGQGTQVTVSSGGGGSGGGGSGGGGSVQLQESGGGLAQAGGSLRLSCAASGRGFSINTMGWYRQAPGKQRELVAAVTRGGTTNYADSVKGRFTISRDNAKNTVYLQMNSLRPEDTAVYYCHVDEVRQSSWTTSNLWGQGTQVTVSSGGGGSGGGGSGGGGSVQLQESGGGLAQAGGSLRLSCAASGRGFSINTMGWYRQAPGKQRELVAAVTRGGTTNYADSVKGRFTISRDNAKNTVYLQMNSLRPEDTAVYYCHVDEVRQSSWTTSNLWGQGTQVTVSS
- Kd (AAV5): 0.0576 nM
- koff (AAV5): 2.2e-06 s⁻¹
- kon (AAV5): 38200 M⁻¹ s⁻¹

B2: A4-D3 (VHH)
chain: VQLQESGGGLAQAGGSLRLSCAASGRGFSINTMGWYRQAPGKQRELVAAVTRGGTTNYADSVKGRFTISRDNAKNTVYLQMNSLRPEDTAVYYCHVDEVRQSSWTTSNLWGQGTQVTVSSGGGGSGGGGSGGGGSVQLQESGGGLAQAGGSLRLSCAASGRGFSINTMGWYRQAPGKQRELVAAVTRGGTTNYADSVKGRFTISRDNAKNTVYLQMNSLRPEDTAVYYCHVDEVRQSSWTTSNLWGQGTQVTVSSGGGGSGGGGSGGGGSVQLQESGGGLAQAGGSLRLSCAASGRGFSINTMGWYRQAPGKQRELVAAVTRGGTTNYADSVKGRFTISRDNAKNTVYLQMNSLRPEDTAVYYCHVDEVRQSSWTTSNLWGQGTQVTVSSGGGGSGGGGSGGGGSVQLQESGGGLVQPGGSLRLSCAASGRGFSINTMGWYRQAPGKQRELVAAVTRGGTTNYADSVKGRFTISRDNAKNTVYLQMNSLRPEDTAVYYCHVDEVRQSSWTTSNLWGQGTQVTVSS
- Kd (AAV5): 0.209 nM
- koff (AAV5): 3.6e-06 s⁻¹
- kon (AAV5): 17300 M⁻¹ s⁻¹

B3: A4-D4 (VHH)
chain: VQLQESGGGLAQAGGSLRLSCAASGRGFSINTMGWYRQAPGKQRELVAAVTRGGTTNYADSVKGRFTISRDNAKNTVYLQMNSLRPEDTAVYYCHVDEVRQSSWTTSNLWGQGTQVTVSSGGGGSGGGGSGGGGSVQLQESGGGLVQPGGSLRLSCAASGRGFSINTMGWYRQAPGKQRELVAAVTRGGTTNYADSVKGRFTISRDNAKNTVYLQMNSLRPEDTAVYYCHVDEVRQSSWTTSNLWGQGTQVTVSSGGGGSGGGGSGGGGSVQLQESGGGLAQAGGSLRLSCAASGRGFSINTMGWYRQAPGKQRELVAAVTRGGTTNYADSVKGRFTISRDNAKNTVYLQMNSLRPEDTAVYYCHVDEVRQSSWTTSNLWGQGTQVTVSSGGGGSGGGGSGGGGSVQLQESGGGLAQAGGSLRLSCAASGRGFSINTMGWYRQAPGKQRELVAAVTRGGTTNYADSVKGRFTISRDNAKNTVYLQMNSLRPEDTAVYYCHVDEVRQSSWTTSNLWGQGTQVTVSS
- Kd (AAV5): 0.657 nM
- koff (AAV5): 1.73e-05 s⁻¹
- kon (AAV5): 26300 M⁻¹ s⁻¹

B4: A4-D8 (bispecific antibody)
chain: VQLQESGGGLVQPGGSLRLSCAASGSRFSLNTMGWYRQAPGKQRELVATVTRGGSTNYADSVKGRFTISRDNAKNTVYLQMNSLRPEDTAVYYCHVDELRESGWTTSNLWGQGTQVTVSSGGGGSGGGGSGGGGSVQLQESGGGLVQPGGSLRLSCAASGSRFSLNTMGWYRQAPGKQRELVATVTRGGSTNYADFVKGRFTISRDNAKNTVYLQMNSLRPEDTAVYYCHVDELRESGWTTSNLWGQGTQVTVSSGGGGSGGGGSGGGGSVQLQESGGGLVHSGGSLRLSCAASGSMFSLNTMGWYRQAPGKQRELVATITRGGGTSYADSVKGRFTISRDNAKNTVYLQMNSLRPEDTAVYYCHVDELRQSSWTTSNLWGQGTQVTVSSGGGGSGGGGSGGGGSVQLQESGGGLVQPGGSLRLSCAASGSRFSLNTMGWYRQAPGKQRELVATVTRGGSTNYADFVKGRFTISRDNAKNTVYLQMNSLRPEDTAVYYCHVDELRESGWTTSNLWGQGTQVTVSS
- Kd (AAV8): 0.228 nM
- koff (AAV8): 1.1e-05 s⁻¹
- kon (AAV8): 48200 M⁻¹ s⁻¹

B5: A4-D9 (bispecific antibody)
chain: VQLQESGGGLVHSGGSLRLSCAASGSMFSLNTMGWYRQAPGKQRELVATITRGGGTSYADSVKGRFTISRDNAKNTVYLQMNSLRPEDTAVYYCHVDELRQSSWTTSNLWGQGTQVTVSSGGGGSGGGGSGGGGSVQLQESGGGLVQPGGSLRLSCAASGSRFSLNTMGWYRQAPGKQRELVATVTRGGSTNYADFVKGRFTISRDNAKNTVYLQMNSLRPEDTAVYYCHVDELRESGWTTSNLWGQGTQVTVSSGGGGSGGGGSGGGGSVQLQESGGGLVQPGGSLRLSCAASGSRFSLNTMGWYRQAPGKQRELVATVTRGGSTNYADFVKGRFTISRDNAKNTVYLQMNSLRPEDTAVYYCHVDELRESGWTTSNLWGQGTQVTVSSGGGGSGGGGSGGGGSVQLQESGGGLVQTGGSLRLSCAASGRAFSLNTMGWYRQAPGKWRELVATVTRGGSTNYAGSVKGRFTISRDNAKNTVYLQMNNLRPEDTAVYYCHVDEVRESSWTTSNLWGQGTQVTVSS
- Kd (AAV8): 0.318 nM
- koff (AAV8): 9.9e-06 s⁻¹
- kon (AAV8): 31100 M⁻¹ s⁻¹

B6: A4-D11 (other)
chain: VQLQESGGGLVQPGGSLRLSCAASGRGFSINTMGWYRQAPGKQRELVAAVTRGGTTNYADSVKGRFTISRDNAKNTVYLQMNSLRPEDTAVYYCHVDEVRQSSWTTSNLWGQGTQVTVSSGGGGSGGGGSGGGGSVQLQESGGGLVQPGGSLRLSCAASGSIFSINTMGWYRQAPGKQRELVAAVTRGGSTNYADSVKGRFTISRDNAKNTVYLQMNSLRPEDTAVYYCHVDEVRQSSWTTSNLWGQGTQVTVSSGGGGSGGGGSGGGGSVQLQESGGGLVQPGGSLRLSCAASGSIFIINTMGWYRRAPGKQRELVAAVTRGGSTNYADSVKGRFTISRDNAKNTVYLQMNSLRPEDTAVYYCHVDEVRQSSWTTSNLWGQGTQVTVSSGGGGSGGGGSGGGGSVQLQESGGGLVQPGGSLRLSCAASGSSFVINTMGWYRQAPGKQRELVAAVTRGGSTNYADSVKGRFTISRDNAKNTVYLQMNSLRPEDTAVYYCHVDEVRQSSWTTSNLWGQGTQVTVSS
- Kd (AAV8): 0.319 nM
- koff (AAV8): 1.5e-05 s⁻¹
- kon (AAV8): 47000 M⁻¹ s⁻¹

B7: A4-D7 (bispecific antibody)
chain: VQLQESGGGLVQTGGSLRLSCAASGRAFSLNTMGWYRQAPGKWRELVATVTRGGSTNYAGSVKGRFTISRDNAKNTVYLQMNNLRPEDTAVYYCHVDEVRESSWTTSNLWGQGTQVTVSSGGGGSGGGGSGGGGSVQLQESGGGLVQPGGSLRLSCAASGSIFTINSMGWYRQAPGKWRELVATVTRGGNTNYANSVKGRFTISRDNAKNTVYLQMNTLRPEDTAVYYCHLDEVRDSSWTTSNLWGQGTQVTVSSGGGGSGGGGSGGGGSVQLQESGGGLVQPGGSLRLSCAASGSIFSINSMGWYRQAPGKWRELVATVTRGGSTNYANSVKGRFTISRDNAKNTVYLQMNTLRPEDTAVYYCHLDEVRDSSWTTSNLWGQGTQVTVSSGGGGSGGGGSGGGGSVQLQESGGGLVQTGGSLRLSCAASGRAFSLNTMGWYRQAPGKWRELVATVTRGGSTNYAGSVKGRFTISRDNAKNTVYLQMNNLRPEDTAVYYCHVDEVRESSWTTSNLWGQGTQVTVSS
- Kd (AAV8): 1.41 nM
- koff (AAV8): 1.79e-05 s⁻¹
- kon (AAV8): 12700 M⁻¹ s⁻¹

B8: A4-B2 (bispecific antibody)
chain: VQLQESGGGLVQAGGSLRLSCAASGSRFSINTMGWYRQAPGKQREFVATVTRGGNTNYAESVKGRFTISRDNAKNTVYLQMNSLRPEDTAVYYCHVDEVRDSSWTTSNIWGQGTQVTVSSGGGGSGGGGSGGGGSVQLQESGGGLVQAGGSLRLSCAASGSTFSINTMGWYRQAPGKQRELVATITRGGNTNYADSVKGRFTISRDNAKNTVYLQMNSLRPEDTAVYYCHVDEVRQSSWTTSNLWGQGTQVTVSS
- Kd (AAV8): 1.02 nM
- koff (AAV8): 0.00014 s⁻¹
- kon (AAV8): 138000 M⁻¹ s⁻¹
- Kd (AAV9): 8.35 nM
- koff (AAV9): 0.0008 s⁻¹
- kon (AAV9): 95800 M⁻¹ s⁻¹
- Kd (AAV5): 7.38 nM
- koff (AAV5): 0.00117 s⁻¹
- kon (AAV5): 159000 M⁻¹ s⁻¹

B9: A4-D6 (bispecific antibody)
chain: VQLQESGGGLVQTGGSLRLSCAASGRAFSLNTMGWYRQAPGKWRELVATVTRGGSTNYAGSVKGRFTISRDNAKNTVYLQMNNLRPEDTAVYYCHVDEVRESSWTTSNLWGQGTQVTVSSGGGGSGGGGSGGGGSVQLQESGGGLVQTGGSLRLSCAASGRAFSLNTMGWYRQAPGKWRELVATVTRGGSTNYAGSVKGRFTISRDNAKNTVYLQMNNLRPEDTAVYYCHVDEVRESSWTTSNLWGQGTQVTVSSGGGGSGGGGSGGGGSVQLQESGGGLVQPGGSLRLSCAASGSIFTINSMGWYRQAPGKWRELVATVTRGGNTNYANSVKGRFTISRDNAKNTVYLQMNTLRPEDTAVYYCHLDEVRDSSWTTSNLWGQGTQVTVSSGGGGSGGGGSGGGGSVQLQESGGGLVQPGGSLRLSCAASGSIFSINSMGWYRQAPGKWRELVATVTRGGSTNYANSVKGRFTISRDNAKNTVYLQMNTLRPEDTAVYYCHLDEVRDSSWTTSNLWGQGTQVTVSS
- Kd (AAV8): 1.02 nM
- koff (AAV8): 1.63e-05 s⁻¹
- kon (AAV8): 16000 M⁻¹ s⁻¹

Reference: US20260062463A1 (KANGYUAN BIOMEDICAL TECH DALIAN, published 2026)
